US20230381328A1, “COMPOUND FOR THE PREVENTION OR TREATMENT OF MYASTHENIA GRAVIS” (ABLEVIA BIOTECH GMBH, priority 2020, published 2023)

target: monoclonal antibody mAB 198; test: peptide microarray, fluorescence, linear peptide

Row | Binder | relative signal [%]
1 | NPADYGR [NPADYGR, linear mimotope] | 12.2
2 | WNPADYR [WNPADYR, linear mimotope] | 40.6
3 | RRNPADY [RRNPADY, linear mimotope] | 9.9
4 | RWNPADF [RWNPADF, linear mimotope] | 12.6
5 | RPNPADY [RPNPADY, linear mimotope] | 9.5
6 | RLNPADY [RLNPADY, linear mimotope] | 17.7
7 | NPADYGD [NPADYGD, linear mimotope] | 14.1
8 | CNLKFNP [CNLKFNP, linear mimotope] | 11
9 | NPADYRG [NPADYRG, linear mimotope] | 71.4
10 | WNPDDYR [WNPDDYR, linear mimotope] | 11.4
11 | LRYNPAD [LRYNPAD, linear mimotope] | 15.9
12 | NPDDYGH [NPDDYGH, linear mimotope] | 7.7
13 | NPADYPG [NPADYPG, linear mimotope] | 19.8
14 | LHWNPAD [LHWNPAD, linear mimotope] | 15.7
15 | NPADYGY [NPADYGY, linear mimotope] | 21.2
16 | NPADYHG [NPADYHG, linear mimotope] | 59.3
17 | LRFNPAD [LRFNPAD, linear mimotope] | 37.1
18 | WNPADYP [WNPADYP, linear mimotope] | 20.5

Row | Binder | relative signal [%]
19 | YNLPWNP [YNL PWNP, linear mimotope] | 7.6
20 | RHNPADY [RHNPADY, linear mimotope] | 8.9
21 | GSLRYNP [GSLRYNP, linear mimotope] | 34.4
22 | NPADYGH [NPADYGH, linear mimotope] | 18.1
23 | RYNPADY [RYNPADY, linear mimotope] | 16.5
24 | LRINPAD [LRINPAD, linear mimotope] | 9.2
25 | NPDDYHG [NPDDYHG, linear mimotope] | 21.3
26 | RTNPADY [RTNPADY, linear mimotope] | 7.2
27 | RFNPADY [RFNPADY, linear mimotope] | 21.8
28 | LRGNPAD [LRGNPAD, linear mimotope] | 48
29 | NPADYGI [NPADYGI, linear mimotope] | 8
30 | LRLNPAD [LRLNPAD, linear mimotope] | 25.2
31 | WNPADYH [WNPADYH, linear mimotope] | 9.4
32 | RINPADY [RINPADY, linear mimotope] | 12.2
33 | NPADYDG [NPADYDG, linear mimotope] | 10.3
34 | GSLRFNP [GSLRFNP, linear mimotope] | 21.6
35 | HWNPADY [HWNPADY, linear mimotope] | 7.4

Other lines, results leading:

Row | relative signal [%] | Binder
36 | 8.8 | WNPDDYGHV
37 | 10.6 | SLRWNPADYHG
38 | 56.7 | VRLRWNPADYP
39 | 11 | SLRINPADY
40 | 9.3 | GSLRFNPAD
41 | 10.6 | GGGSLRRNPAD
42 | 16.7 | LLGGGSLRFNP
43 | 9.5 | GSLRRNPAD
44 | 8.1 | GGGSLRFNPAD
45 | 7.1 | GGGSLRYNP
46 | 7.6 | VDYNLKFNP
47 | 13.7 | YNLKFNP [YNLKFNP, linear mimotope]
48 | 13.6 | SLHWNPADY
49 | 9.4 | RWNPADYGH
50 | 13 | RGNPADYGG
51 | 17.3 | LRLNPADYG
52 | 10.6 | LRWNPADYGGF
53 | 8.3 | YNLKYNP [YNLKYNP, linear mimotope]
54 | 13.7 | WNPADYGHI
55 | 8.9 | GNPADYGGI
56 | 15.3 | LRWNPADYH

Row | relative signal [%] | Binder
57 | 8.1 | VRHRWNPAD
58 | 12.4 | RLRWNPADYHG
59 | 13.4 | QWIDVRLRYNP
60 | 9 | WRLRWNPAD
61 | 12.2 | IDVRLRYNP
62 | 8.5 | DVRLRINPADY
63 | 25 | VRLRRNPAD
64 | 7.2 | LRWNPADYHGI
65 | 15 | IDVRLRFNP
66 | 8.6 | RPNPADYGG
67 | 7.6 | VPLRWNPAD
68 | 10 | DVRLRFNPADY
69 | 13 | GGGSLRFNP
70 | 11.4 | RLRFNPADY
71 | 7.9 | IDVRLRFNPAD
72 | 14.9 | RLRVNPADY
73 | 20.1 | QWIDVRLRFNP
74 | 10.9 | QWVDYNLKFNP
75 | 12.6 | LRINPADYG
76 | 11 | RLYWNPADY
77 | 20.2 | RLHWNPADY
